{"source": "paper PMC11910884", "about": "(The Innovation, 2025)", "binders": {"B1": {"name": "SmBiT-Itgal (receptor)", "chain": "YNLDTRPTQSFLAQAGRHFGYQVLQIEDGVVVGAPGEGDNTGGLYHCRTSSEFCQPVSLHGSNHTSKYLGMTLATDAAKGSLLACDPGLSRTCDQNTYLSGLCYLFPQSLEGPMLQNRPAYQECMKGKVDLVFLFDGSQSLDRKDFEKILEFMKDVMRKLSNTSYQFAAVQFSTDCRTEFTFLDYVKQNKNPDVLLGSVQPMFLLTNTFRAINYVVAHVFKEESGARPDATKVLVIITDGEASDKGNISAAHDITRYIIGIGKHFVSVQKQKTLHIFASEPVEEFVKILDTFEKLKDLFTDLQRRIYAIEGTNRQDLTSFNMELSSSGISADLSKGHAVVGAVGAKDWAGGFLDLREDLQGATFVGQEPLTSDVRGGYLGYTVAWMTSRSSRPLLAAGAPRYQHVGQVLLFQAPEAGGRWNQTQKIEGTQIGSYFGGELCSVDLDQDGEAELLLIGAPLFFGEQRGGRVFTYQRRQSLFEMVSELQGDPGYPLGRFGAAITALTDINGDRLTDVAVGAPLEEQGAVYIFNGKPGGLSPQPSQRIQGAQVFPGIRWFGRSIHGVKDLGGDRLADVVVGAEGRVVVLSSRPVVDVVTELSFSPEEIPVHEVECSYSAREEQKHGVKLKACFRIKPLTPQFQGRLLANLSYTLQLDGHRMRSRGLFPDGSHELSGNTSITPDKSCLDFHFHFPICIQDLISPINVSLNFSLLEEEGTPRDQKVGRAMQPILRPSIHTVTKEIPFEKNCGEDKKCEANLTLSSPARSGPLRLMSSASLAVEWTLSNSGEDAYWVRLDLDFPRGLSFRKVEMLQPHSRMPVSCEELTEGSSLLTKTLKCNVSSPIFKAGQEVSLQVMFNTLLNSSWEDFVELNGTVHCENENSSLQEDNSAATHIPVLYPVNILTKEQENSTLYISFTPKGPKTQQVQHVYQVRIQPSAYDHNMPTLEALVGVPWPHSEDPITYTWSVQTDPLVTCHSEDLKRPSSEAEQPCLPGVQFRCPIVFRREILIQVTGTVELSKEIKASSTLSLCSSLSVSFNSSKHFHLYGSKASEAQVLVKVDLIHEKEMLHVYVLSGIGGLVLLFLIFLALYKVGFFKRNLKEKMEADGGVPNGSPPEDTDPLAVPGEETKDMGCLEPLRESDKD"}}, "target": "LgBiT-Npc1l1 expressed on OVA-Panc-02 cells (UniProt Q6T3U4 21-1333)", "sequence (Q6T3U4 21-1333)": "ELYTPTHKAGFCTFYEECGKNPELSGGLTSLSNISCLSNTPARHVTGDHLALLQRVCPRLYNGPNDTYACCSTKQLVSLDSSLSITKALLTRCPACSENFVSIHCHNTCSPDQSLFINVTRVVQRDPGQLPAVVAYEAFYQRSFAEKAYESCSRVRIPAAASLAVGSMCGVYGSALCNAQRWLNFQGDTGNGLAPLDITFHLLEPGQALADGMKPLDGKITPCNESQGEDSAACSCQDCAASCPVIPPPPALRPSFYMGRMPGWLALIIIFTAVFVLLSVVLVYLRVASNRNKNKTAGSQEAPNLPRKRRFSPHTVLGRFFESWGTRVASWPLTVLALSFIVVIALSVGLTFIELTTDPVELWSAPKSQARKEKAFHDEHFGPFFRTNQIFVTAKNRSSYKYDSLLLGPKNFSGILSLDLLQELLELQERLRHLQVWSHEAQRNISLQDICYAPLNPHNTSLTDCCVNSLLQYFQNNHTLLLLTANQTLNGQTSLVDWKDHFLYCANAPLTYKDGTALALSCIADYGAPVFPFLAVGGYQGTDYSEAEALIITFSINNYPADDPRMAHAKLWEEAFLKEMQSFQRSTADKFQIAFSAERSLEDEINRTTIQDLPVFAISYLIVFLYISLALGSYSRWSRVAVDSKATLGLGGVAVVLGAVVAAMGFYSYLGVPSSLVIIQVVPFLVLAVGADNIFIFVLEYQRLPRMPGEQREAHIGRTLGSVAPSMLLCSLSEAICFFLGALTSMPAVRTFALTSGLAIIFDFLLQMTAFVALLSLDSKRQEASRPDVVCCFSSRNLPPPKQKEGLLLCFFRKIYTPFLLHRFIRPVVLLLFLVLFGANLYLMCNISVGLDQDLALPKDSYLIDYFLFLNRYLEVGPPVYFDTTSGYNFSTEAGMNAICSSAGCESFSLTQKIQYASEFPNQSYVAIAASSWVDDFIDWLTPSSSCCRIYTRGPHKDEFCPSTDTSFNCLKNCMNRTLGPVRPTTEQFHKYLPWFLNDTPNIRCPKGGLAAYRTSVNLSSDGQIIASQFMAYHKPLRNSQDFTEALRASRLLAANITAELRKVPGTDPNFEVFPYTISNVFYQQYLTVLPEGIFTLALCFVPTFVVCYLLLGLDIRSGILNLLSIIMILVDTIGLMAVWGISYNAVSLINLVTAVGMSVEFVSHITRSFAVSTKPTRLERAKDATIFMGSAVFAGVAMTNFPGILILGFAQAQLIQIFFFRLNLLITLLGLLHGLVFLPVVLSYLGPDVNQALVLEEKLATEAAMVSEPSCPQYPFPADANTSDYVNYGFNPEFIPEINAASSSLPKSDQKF", "assay": "split reporter"}
{"binder": "B1", "values": [{"measurement": "fold luminescence over the NanoBiT negative controls", "result": 1000, "unit": "fold"}]}
